Results as given in patent US12065505B2, “Antibodies and antigen binding peptides for factor XIa inhibitors and uses thereof” (Bristol-Myers Squibb Company, priority 2021, dated 2024).

What was measured:
[1] = SPR (Biacore) on chip coated with BSA conjugated to COMPOUND 2; format: binding; details: Fab over COMPOUND 2-BSA surface; for Ka / koff, dissociation rate constant: apparent; for Kd: apparent affinity
Procedure: The binding of the first round affinity matured antibody Fab fragments to conjugated versions of Compound A was examined by SPR (Biacore™) using a CM5 S-series sensor chip (Cytiva, Cat. No. 29149603) coated with BSA previously conjugated to COMPOUND 2, COMPOUND 3 or COMPOUND 1. The immobilization level was 150-250 RUs. The running buffer was 1×PBS (phosphate buffered saline, pH 7.4) with 0.05% Tween 20. […] The antibody Fab fragment at a concentration of between 200-0.8 nM was injected over the BSA-compound coated surface for 2 minutes at a flow rate of 30 uL/min. The antibody Fab fragment was then allowed to dissociate for 15 minutes. The chip surface was regenerated after each cycle with a 1 minute pulse of 10 mM Glycine, pH 2, and a 1 minute pulse of 50 mM NaOH. All experiments were run on the same equipment and analyzed with the same software as described before. Apparent affinities were determined for rank ordering only since dissociation rates were too slow to be measured by Biacore. Comparative experiments with selected mAbs were also conducted in a similar fashion (see FIG. 11).

[2] = Thermal stability by Differential Scanning Calorimetry; format: physicochemical; details: DSC; Fab 1 mg/ml
Procedure: Thermal stability analysis was performed with UNchained Labs UNcle™/Tagg analysis with Fabs at a concentration of 20 uM with or without Compound A at a concentration of 50 uM (or control compound). Capillaries were scanned from 25 to 90° C. at 0.5° C./min. In addition, select Fabs were also analyzed by Differential Scanning calorimetry analysis using the Malvern MicroCal VP-Capillary DSC. Samples were buffer matched and loaded with Fabs at a concentration of 10 uM with or without Compound A at a concentration of 15 uM (or control compound). Scan temperature range was 15-110° C. at a rate of 60° C./Hr (Filter period: 16 sec, Gain: None). Sample analysis was using software provided by the manufacturer for both the UNcle and the Malvern Capillary DSC. FIG. 15 and Table 14 below show representative DSC results.

[3] = Kinetic Exclusion Assay (KinExA) solution affinity; format: binding; details: for KinExA Ka: complex association rate, 200 pM Fab and 400 pM Compound A; for Kd: solution affinity for Compound A, Fab 100, 200, 300 pM, equilibrated 24-72 hours
Procedure: The solution affinity of the antibody Fab fragments disclosed herein for Compound A was measured using a Kinetic Exclusion Assay (KinExA). […] The relative unbound concentration of 26D5 affinity matured antibody Fab fragment was measured by capture on a streptavidin coated bead with COMPOUND 5 followed by detection with a fluorescently labeled antibody that recognizes the human IgG Fab. Kinetic analysis to determine the complex association rate was measured with the same assay format except that a single tube of the mixture was prepared (200 pM Fab and 400 pM Compound A) and time points were removed immediately (no equilibration). Two Fabs, 26D5-75229-343-A10-Fab-SHORT and 26D5-75616-348-F10-Fab-SHORT, were identified as the top two Fabs by DSC thermal stability and KinExA analysis. Antibody Fab fragment 26D5-75616-348-F10-Fab-SHORT (SEQ ID NO: 106 and SEQ ID NO: 164; see Table 3) was selected for X-ray crystallography as described below and in vivo studies as described in Example 12.

B1: 26D5-GVR-Q-FT-Fab-SHORT: antibody Fab fragment; VH SEQ ID NO: 81, VL SEQ ID NO: 99; sequence in Table 3 (antibody, V domains shown)
VH: EVQLVESGGGLIQPGGSLRLSCAASGFTVSRNYMSWVRQAPGKGLEWVSFIYSGGRTYYADSVKGRFTISRDNSKNTLYLQMNSLRAEDTAVYYCARGGFGGGDYWGQGTLVTVSS
VL: DIQMTQSPSSVSASVGDRVTITCRASQGISSWLAWYQQKPGKAPKLLIYAASSLQSGVPSRFSGSGSGTDFTLTISSLQPEDFATYYCQQANSFPLTFGGGTKVEIK
With B1 the “Ka” value ([1]; 37° C.) was 1.6e+06 M⁻¹ s⁻¹, the “koff, dissociation rate constant” value ([1]; 37° C.) was 0.0013 s⁻¹ and the Kd ([1]; 37° C.) was 900 pM.

B2: 26D5-295-C08-Fab-LONG: antibody Fab fragment; VH SEQ ID NO: 62, VL SEQ ID NO: 88; sequence in Table 3 (antibody, V domains shown)
VH: EVQLVESGGGLIQPGGSLRLSCAASGFQVSSNAMSWVRQAPGKGLEWVSFIYPGGRTYYADSVKGRFTISRDNSKNTLYLQMNSLRAEDTAVYYCARGGFGGGDYWGQGTLVTVSS
VL: DIQMTQSPSSVSASVGDRVTITCRASQGISSNLAWYQQKPGKAPKLLIYAASSLQSGVPSRFSGSGSGTDFTLTISSLQPEDFATYYCQQANSFPLTFGGGTKVEIK
For B2, the “Ka” value ([1]; 37° C.) was 280000 M⁻¹ s⁻¹, the “koff, dissociation rate constant” value ([1]; 37° C.) was 8.5e-05 s⁻¹ and the Kd ([1]; 37° C.) was 300 pM.

B3: 26D5-75229-343-A10-Fab-SHORT: antibody Fab fragment; VH SEQ ID NO: 52, VL SEQ ID NO: 84; sequence in Table 3 (antibody, V domains shown)
VH: EVQLVESGGGLIQPGGSLRLSCAASGFTVSSNAMSWVRQAPGKGLEWVSYIYPGGRTYYADSVKGRFTISRDNSKNTLYLQMNSLRAEDTAVYYCARAGFGGPDYWGQGTLVTVSS
VL: DIQMTQSPSSVSASVGDRVTITCRASQGISSNLAWYQQKPGKAPKLLIYAASSLQSGVPSRFSGSGSGTDFTLTISSLQPEDFATYYCQQANQFPLTFGGGTKVEIK
With B3 the “Tm1 (° C.)” value [2] was 74.9 °C and the “KinExA Ka” value [3] was 50000 M⁻¹ s⁻¹.

B4: 26D5-295-C08-Fab-SHORT: antibody Fab fragment; VH SEQ ID NO: 62, VL SEQ ID NO: 88; sequence in Table 3 (antibody, V domains shown)
VH: EVQLVESGGGLIQPGGSLRLSCAASGFQVSSNAMSWVRQAPGKGLEWVSFIYPGGRTYYADSVKGRFTISRDNSKNTLYLQMNSLRAEDTAVYYCARGGFGGGDYWGQGTLVTVSS
VL: DIQMTQSPSSVSASVGDRVTITCRASQGISSNLAWYQQKPGKAPKLLIYAASSLQSGVPSRFSGSGSGTDFTLTISSLQPEDFATYYCQQANSFPLTFGGGTKVEIK
For B4, the “Tm1 (° C.)” value [2] was 75.3 °C.

B5: 9C8-VGSKE-Fab-LONG: antibody Fab fragment; VH SEQ ID NO: 78, VL SEQ ID NO: 96; sequence in Table 3 (antibody, V domains shown)
VH: QVQLQESGPGLVKPSETLSLTCAVSGYSISSGYYWGWIRQPPGKGLEWIGSIYHSGNTYYSPSLQSRVTISVDTSKNQFSLKLSSVTAADTAVYYCARGGDFDILTGYYKGWFEPWGQGTLVTVSS
VL: AIQLTQSPSSLSASVGDRVTITCRASQGISSALAWYQQKPGKAPKLLIYDASSLESGVPSRFSGSGSGTDFTLTISSLQPEDFATYYCQQFNSYPQTFGQGTKVEIK
For B5, the “Ka” value ([1]; 25° C.) was 400000 M⁻¹ s⁻¹, the “koff, dissociation rate constant” value ([1]; 25° C.) was 0.00087 s⁻¹ and the Kd ([1]; 25° C.) was 2100 pM.

B6: 26D5-75203-343-B09-Fab-SHORT: antibody Fab fragment; VH SEQ ID NO: 54, VL SEQ ID NO: 87; sequence in Table 3 (antibody, V domains shown)
VH: EVQLVESGGGLIQPGGSLRLSCAASGFTVSSNAMSWVRQAPGKGLEWVSYIYPGGRTYYADSVKGRFTISRDNSKNTLYLQMNSLRAEDTAVYYCARAGFGGGDYWGQGTLVTVSS
VL: DIQMTQSPSSVSASVGDRVTITCRASQGISSNLAWYQQKPGKAPKLLIYAASTLQSGVPSRFSGSGSGTDFTLTISSLQPEDFATYYCQQANEFPLTFGGGTKVEIK
With B6 the “Tm1 (° C.)” value [2] was 76.6 °C, the “KinExA Ka” value [3] was 14000 M⁻¹ s⁻¹ and the Kd [3] was 10 pM.

B7: 26D5-75768-348-A10-Fab-SHORT: antibody Fab fragment; VH SEQ ID NO: 56, VL SEQ ID NO: 89; sequence in Table 3 (antibody, V domains shown)
VH: EVQLVESGGGLIQPGGSLRLSCAASGFTVSSNAVSIVRQAPGKGLEWVAYIYPGGRTYYADSVKGRFTISRDNSKNTLYLQMNSLRAEDTAVYYCTIGGFGGGDYWGQGTLVTVSS
VL: DIQMTQSPSSVSASVGDRVTITCRASQGISSNNQWYQQKPGKAPKLLIYYASSLQSGVPSRFSGSGSGTDFTLTISSLQPEDFATYYCQQGNEFPLTFGGGTKVEIK
For B7, the “Tm1 (° C.)” value [2] was 66.3 °C and the “Tm2 (° C.)” value [2] was 74.1 °C.

B8: 26D5-75202-343-A09-Fab-SHORT: antibody Fab fragment; VH SEQ ID NO: 54, VL SEQ ID NO: 86; sequence in Table 3 (antibody, V domains shown)
VH: EVQLVESGGGLIQPGGSLRLSCAASGFTVSSNAMSWVRQAPGKGLEWVSYIYPGGRTYYADSVKGRFTISRDNSKNTLYLQMNSLRAEDTAVYYCARAGFGGGDYWGQGTLVTVSS
VL: DIQMTQSPSSVSASVGDRVTITCRASQGIYSNLAWYQQKPGKAPKLLIYAASSLQSGVPSRFSGSGSGTDFTLTISSLQPEDFATYYCQQANEFPLTFGGGTKVEIK
In the case of B8, the “Tm1 (° C.)” value [2] is reported as 75.3 °C, the “KinExA Ka” value [3] is reported as 150000 M⁻¹ s⁻¹ and the Kd [3] is reported as 19 pM.

B9: 26D5-75214-343-F06-Fab-SHORT: antibody Fab fragment; VH SEQ ID NO: 53, VL SEQ ID NO: 85; sequence in Table 3 (antibody, V domains shown)
VH: EVQLVESGGGLIQPGGSLRLSCAASGFTVSSNAMSWVRQAPGKGLEWVSFIYPGGRTYYADSVKGRFTISRDNSKNTLYLQMNSLRAEDTAVYYCARAGFGGPDYWGQGTLVTVSS
VL: DIQMTQSPSSVSASVGDRVTITCRASQGISSNLAWYQQKPGKAPKLLIYAASSLQSGVPSRFSGSGSGTDFTLTISSLQPEDFATYYCQQANEFPLTFGGGTKVEIK
In the case of B9, the “Tm1 (° C.)” value [2] is reported as 75.5 °C, the “KinExA Ka” value [3] is reported as 600000 M⁻¹ s⁻¹ and the Kd [3] is reported as 15 pM.

B10: 26D5-295-B08-Fab-LONG: antibody Fab fragment; VH SEQ ID NO: 60, VL SEQ ID NO: 88; sequence in Table 3 (antibody, V domains shown)
VH: EVQLVESGGGLIQPGGSLRLSCAASGFTVSSNAMSWVRQAPGKGLEWVSFIYPGGRTYYADSVKGRFTISRDNSKNTLYLQMNSLRAEDTAVYYCARAGFGGGDYWGQGTLVTVSS
VL: DIQMTQSPSSVSASVGDRVTITCRASQGISSNLAWYQQKPGKAPKLLIYAASSLQSGVPSRFSGSGSGTDFTLTISSLQPEDFATYYCQQANSFPLTFGGGTKVEIK
In the case of B10, the “Ka” value ([1]; 37° C.) is reported as 280000 M⁻¹ s⁻¹, the “koff, dissociation rate constant” value ([1]; 37° C.) is reported as 0.00022 s⁻¹ and the Kd ([1]; 37° C.) is reported as 800 pM.

B11: 26D5-GVR-H-Fab-LONG: antibody Fab fragment; VH SEQ ID NO: 81, VL SEQ ID NO: 98; sequence in Table 3 (antibody, V domains shown)
VH: EVQLVESGGGLIQPGGSLRLSCAASGFTVSRNYMSWVRQAPGKGLEWVSFIYSGGRTYYADSVKGRFTISRDNSKNTLYLQMNSLRAEDTAVYYCARGGFGGGDYWGQGTLVTVSS
VL: DIQMTQSPSSVSASVGDRVTITCRASQGISSWLAWYQHKPGKAPKLLIYAASSLQSGVPSRFSGSGSGTDFTLTISSLQPEDFATYYCQQANSFPLTFGGGTKVEIK
For B11, the “Ka” value ([1]; 37° C.) was 280000 M⁻¹ s⁻¹, the “koff, dissociation rate constant” value ([1]; 37° C.) was 0.001 s⁻¹ and the Kd ([1]; 37° C.) was 3500 pM.
